# Source: patent publication US6696546B1, “Peptide that kills growing but not stationary cells” (The Trustees of Columbia University in the City of New York, priority 2000, dated 2004)
# Columns and labels:
# cyclin A/cdk2 = cyclin A/cdk2 (Homo sapiens, UniProt P20248); test: in vitro kinase assay, pRB phosphorylation by cyclin A/cdk2; format: biochemical; settings: peptide 9 μM and 18 μM; for pRB phosphorylation by cyclin A/cdk2: γ-32P ATP, SDS-PAGE, autoradiography
# [1] = molecular target: cyclin D1-cdk2 association (Homo sapiens, UniProt P24385); test: GST-cyclin D1 binding assay with cdk2; settings: peptide 9 μM and 20 μM; Western blot
# HaTCat cells = test: DNA content by propidium iodide staining and FACS, HaTCat cells; format: cell-based, human; settings: for S-phase population of cells: confluent (resting) HaTCat cells
# Description: A graphical representation of DNA content of cells as collected by propidium iodide staining and subsequent FACS analysis. G0/G1, S, and G2M phases are depicted of cells either treated or not treated with cell permeable peptides. The percentage of untreated cell in a given phase are in white, PAP's CRM in (SEQ ID NO: 3) black, p21's in gray (SEQ ID NO: 5), scrambled in horizontal stripes (SEQ ID NO: 4), internalization sequence alone in vertical stripes (SEQ ID NO: 2).
# (A) PAP's CRM (SEQ ID NO: 3) kills growing HaTCats, but stimulates S-phase entry of stationary HaTCats. The bar graph depicts the fold induction over non-treated cells of sub-G1 DNA content and S-phase DNA content of four different populations of cells. The percentage of cells found S-phase of each population is noted below the bar graph. Sub-G1 DNA content and S-phase DNA content are depicted of cells either treated or not treated with cell permeable peptides. The percentages of untreated cell in a given phase are in white, PAP's CRM (SEQ ID NO: 3) in black, p21's in gray (SEQ ID NO: 5), and scrambled in stripes (SEQ ID NO: 4).
# Panel B of FIG. 7 is a graphical representation of DNA content of cells, derived from propidium iodide staining and subsequent the fluorescence-activated cell sorter (FACS) analysis. In this experiment, an immortalized human karitinocyte cell line (HaTCat) was treated with the cell-membrane permeable form of PAP's CRM (SEQ ID NO:3). […] This is not observed with the scrambled sequence (SEQ ID NO:4), nor the p21 (SEQ ID NO:5) nor the penetratin sequence alone (SEQ ID NO:2).
# FIG. 8 is a graphical representation of the fold induction, over untreated control cells, of sub-G1 DNA content and S-phase DNA content of four different populations of HaTCat cells. These populations vary in their proliferation rates due to their confluency, starting with the least confluent population of cells, with 30% in S-phase, to the most confluent population, with only 3.5% in S-phase. Cycling cells, with over 30% of cells in S-phase, die when treated with the SEQ ID NO:3.
# (§1) After treatment with or without cell membrane permeable peptides (Synpep), cells were trypsinized, centrifuged and washed in PBS. Cell were than fixed with methanol and kept at −20° C. for 40 min or overnight. After washing and equilibration in PBS, the cell pellet was resuspended in 1 ml of staining solution containing 50 μg of RNase A and 0.5 μg of propidium iodide per ml in PBS, and kept at room temperature for over 30 minutes. The cells were then applied to the fluorescence-activated cell sorter (FACSCalibur; Becton Dickson). The FACSCalibur program was used to sort and count the cells, and the Modfit program was used to calculate the percentage of cells in the G0/G1, S, and G2/M phases.
# MEFs [2] = test: DNA content by propidium iodide staining and FACS, mouse embryo fibroblasts; format: cell-based; settings: sub-confluent MEFs; for percentage of cells with S-phase DNA content / percentage of cells with sub-G1 DNA content: one hour, SEQ ID NO:3 1.87-30 μM, controls 30 μM
# Protocol: (A) PAP's CRM stimulates both the percentage of cells with sub-G1 DNA content and S-phase DNA content in a dose dependent manner. DNA content as measured by FACS analysis is graphically represented.
# (B) PAP's CRM stimulates cell death over time. The percentage of cells with a sub-G1 DNA content with or without treatment with 30 μM of PAP's CRM (SEQ ID NO: 3) for varying lengths of time is shown.
# (C) The percents of cells with G0/G1 (in black), S (in gray), and G2/M (in white) DNA contents of the same population of cells in (B) are depicted.
# Panel A depicts the MEF's response to a concentration curve of SEQ ID NO:3. […] After a one hour incubation, cells were harvested for propidium iodine staining and subsequent FACS analysis.
# To further study the MEF's reactions to the membrane permeable peptide, SEQ ID NO:3, and to determine if the increase in S-phase depicts a stimulation or inhibition of proliferation, treatment with one concentration was followed at varying time points. Sub-confluent MEFs were treated with 30 μM SEQ ID NO:3, harvested at different time points, and their DNA content was analyzed by propidium iodide staining and subsequent FACS analysis. FIG. 10 panel B depicts the percentage of death initiated over time, as measured by sub-G1 DNA content. 30% of the cells die after the first hour of treatment, 50% by the forth. […], depicts the cell cycle analysis over time of those cells that are not dying. Here, the stimulation of the cell cycle over time by SEQ ID NO:3, is clearly seen, ruling out an inhibitory effect. In the first hour, 25% of the cycling cells are induced into S-phase, and in time, into G2/M and back into G1.
# as §1
# Wi38 cells = test: DNA content by propidium iodide staining and FACS, Wi38 cells; format: cell-based, human
# pRB knock out MEFs = test: DNA content by FACS, pRB knock out mouse embryo fibroblasts; format: cell-based
# Description: (A) A graphical representation of the fold induction of sub-G1 DNA content in cells with or without pRB, as indicated below the graph. […] (B) A graphical representation of the fold induction of S-phase DNA content in the same cells.
# The ability of SEQ ID NO:3 to stimulate both death and proliferation in mouse embryo fibroblasts, allows us to test the model, wherein pRB inhibits cell death after treatment with SEQ ID NO:3, thereby allowing for stimulation of proliferation (FIG. 9). In the absence of pRB, cells would no longer have the anti-apoptotic activity of pRB, and treatment with SEQ ID NO:3 would lead only to cell death. In the experiment shown in FIG. 11, two genetically identical populations of cells were used, except that one was pRB minus, by way of knock out technology. The fold inductions of both sub-G1 and S-phase are represented in FIG. 11. Upon treatment with SEQ ID NO:3, here done in duplicate, the cells with pRB show at least a two-fold induction of S-phase after one hour of treatment. The cells without pRB show none, but therefore a dramatic (up to 50 fold) induction of death.
# After treatment with or without cell membrane permeable peptides (Synpep), cells were trypsinized, centrifuged and washed in PBS. […] The cells were then applied to the fluorescence-activated cell sorter (FACSCalibur; Becton Dickson). […]
# MEFs [3] = test: DNA content by propidium iodide staining and FACS, mouse embryo fibroblasts; format: cell-based; settings: MEFs with pRB, after one hour of treatment, duplicate
# cyclin B1/cdc2 = cyclin B1/cdc2 (Homo sapiens, UniProt P14635); test: in vitro kinase assay, pRB phosphorylation by cyclin B1/cdc2; format: biochemical; settings: peptide 18 μM
# Chain of cyclin B1/cdc2 (P14635 whole entry): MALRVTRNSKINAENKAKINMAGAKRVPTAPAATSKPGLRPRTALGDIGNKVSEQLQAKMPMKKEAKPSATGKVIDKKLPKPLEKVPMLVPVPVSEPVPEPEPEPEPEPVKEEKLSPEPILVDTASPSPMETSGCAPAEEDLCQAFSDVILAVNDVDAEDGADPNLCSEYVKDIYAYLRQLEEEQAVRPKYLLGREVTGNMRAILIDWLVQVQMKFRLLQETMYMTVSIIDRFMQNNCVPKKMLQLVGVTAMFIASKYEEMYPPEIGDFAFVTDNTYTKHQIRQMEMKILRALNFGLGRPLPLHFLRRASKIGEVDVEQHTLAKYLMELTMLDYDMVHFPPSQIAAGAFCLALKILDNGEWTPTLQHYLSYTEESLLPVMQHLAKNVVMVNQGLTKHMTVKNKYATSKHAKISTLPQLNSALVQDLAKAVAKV
# Chain of cyclin B1/cdc2 (P06493 whole entry partner): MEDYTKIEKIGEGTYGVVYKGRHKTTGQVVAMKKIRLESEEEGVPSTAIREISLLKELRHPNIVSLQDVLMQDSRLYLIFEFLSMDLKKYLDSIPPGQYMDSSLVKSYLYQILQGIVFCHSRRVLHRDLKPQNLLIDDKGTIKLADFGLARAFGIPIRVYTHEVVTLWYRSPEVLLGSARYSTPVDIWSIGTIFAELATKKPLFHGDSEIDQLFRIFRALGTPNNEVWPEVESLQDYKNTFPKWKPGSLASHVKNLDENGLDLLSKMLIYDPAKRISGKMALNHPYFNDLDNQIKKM
# [4] = molecular target: PAP-cyclin B1 interaction (Homo sapiens, UniProt P14635); test: GST-cyclin B1 pull-down assay of PAP binding
# Chain of PAP-cyclin B1 interaction (P14635 whole entry): as the sequence (P14635 whole entry) above
substance,measurement,setting,value
"LRSGIKVI (scrambled sequence) [SEQ ID NO:4, fused to penetratin in cell tests, reference compound]",pRB phosphorylation by cyclin A/cdk2,cyclin A/cdk2,no effect
same,presence of cdk2 in the eluate of GST-cyclin D1,[1],without significant effect
same,S-phase population of cells,HaTCat cells,not observed
same,percentage of cells with S-phase DNA content,MEFs [2],No effects
same,percentage of cells with sub-G1 DNA content,MEFs [2],No effects
SEQ ID NO:3: 8-mer peptide (SEQ ID NO:1) fused to penetratin (SEQ ID NO:2); cell-membrane permeable form of PAP's CRM (RQIKIWFQNRRMKWKKSKIRILVG; poly(A) polymerase cyclin recognition motif fued to Drosohilia Antennapedia homeodomain residues),S-phase population of cells,HaTCat cells,dramatic increase
same,cell death (sub-G1 DNA content),"HaTCat cells; cycling HaTCat cells, over 30% of cells in S-phase",die
same,cell death (sub-G1 DNA content),"HaTCat cells; most confluent HaTCat population, 3.5% in S-phase",cell death is in fact inhibited
same,Wi38 death (sub-G1 DNA content),Wi38 cells; populations of varying confluency,able to induce Wi38 death in a growth dependent manner
same,decrease in fold induction of sub G1 DNA content,Wi38 cells; with the increase in confluency and decrease in growth,30 fold
same,cells that die (sub-G1 DNA content),"MEFs [2]; 30 μM, after the first hour",30%
same,cells that die (sub-G1 DNA content),"MEFs [2]; 30 μM, by the fourth hour",50%
same,cycling cells induced into S-phase,"MEFs [2]; 30 μM, in the first hour",25%
same,percentage of cells with S-phase DNA content,MEFs [2],dramatically increased
same,percentage of cells with sub-G1 DNA content,MEFs [2],dramatically increased
same,fold induction of death (sub-G1 DNA content),pRB knock out MEFs,up to 50 fold
same,fold induction of S-phase,"pRB knock out MEFs; MEFs without pRB, after one hour of treatment",none
same,fold induction of S-phase,MEFs [3],two
SKIRILVG (poly(A) polymerase cyclin recognition motif) [SEQ ID NO:1],cyclin A phosphorylation in the same reaction mixture,cyclin A/cdk2; internal control for specificity,not cyclin A phosphorylation
same,pRB phosphorylation by cyclin A/cdk2,cyclin A/cdk2,effectively inhibited
same,cyclin B1 autophosphorylation,cyclin B1/cdc2,not affected
same,phosphorylation of pRB by cyclin B1/cdc2,cyclin B1/cdc2,strongly and specifically inhibited
same,presence of cdk2 in the eluate of GST-cyclin D1,[1],significantly increased
same,PAP I-GST-cyclin B1 binding,"[4]; 2, 5, 10 and 20 μM peptide",dose-dependent enhancement
same,association of purified bacterial his-PAP I with GST-cyclin B1,"[4]; 2, 10 and 20 μM peptide, Western blot with anti-PAP antibody",strongly stimulated
same,input PAP bound to GST-cyclin B1,"[4]; highest peptide concentration, purified bacterial his-PAP I",~100%
